Laboratory results as given in paper doi:10.1101/2020.10.14.337170.
Read-outs that look alike come from different tables or passages of the source.

Tests used:
[1] = target: KKT4^2–114 (Trypanosoma brucei); experiment: SEC-MALS
[2] = target: KKT4^2–114 (Trypanosoma brucei); experiment: SEC-MALS; remark: listed apart in the source
[3] = target: Leishmania mexicana KKT4^184–284 (Leishmania mexicana); experiment: crystal structure
[4] = target: Fluorescently-labelled phosphopeptide derived from KKT8 (Trypanosoma brucei); experiment: fluorescence polarisation
[5] = target: Trypanosoma cruzi (Sylvio X10) KKT4^117–218 (Trypanosoma cruzi (Sylvio X10)); experiment: crystal structure
[6] = target: SNAP-6HIS-3FLAG-KKT4 (KKT4^2–645) (Trypanosoma brucei); experiment: SEC-MALS
[7] = target: KKT4^101–352 (Trypanosoma brucei); experiment: SEC-MALS

Work on KKT4^2–114 (domain or fragment) yielded a stoichiometry N [1] of 4 and a stoichiometry N [2] of 3.
For “Leishmania mexicana KKT4^184–284 (domain or fragment)”, the stoichiometry N [3] was 2.
“KKT4^463–645 (KKT4 BRCT domain) (domain or fragment)” was tested, and the Kd [4] was 30 µM.
“Trypanosoma cruzi (Sylvio X10) KKT4^117–218 (domain or fragment)” gave a stoichiometry N [5] of 2.
“SNAP-6HIS-3FLAG-KKT4 (KKT4^2–645) (natural protein)” was tested, and the stoichiometry N [6] was 4.
Substance KKT4^101–352 (domain or fragment) has a stoichiometry N [7] of 2.
